Experimental data reported in patent US20200087373A1 (UNIVERSITY OF COPENHAGEN, published 2020).
Ends that are not written are not given here. * marks the point of attachment. C16 diacid = O=C(O)CCCCCCCCCCCCCCC(=O)*

T1: human GIP receptor (human, UniProt P48546 22-466)
T1 sequence (looked up): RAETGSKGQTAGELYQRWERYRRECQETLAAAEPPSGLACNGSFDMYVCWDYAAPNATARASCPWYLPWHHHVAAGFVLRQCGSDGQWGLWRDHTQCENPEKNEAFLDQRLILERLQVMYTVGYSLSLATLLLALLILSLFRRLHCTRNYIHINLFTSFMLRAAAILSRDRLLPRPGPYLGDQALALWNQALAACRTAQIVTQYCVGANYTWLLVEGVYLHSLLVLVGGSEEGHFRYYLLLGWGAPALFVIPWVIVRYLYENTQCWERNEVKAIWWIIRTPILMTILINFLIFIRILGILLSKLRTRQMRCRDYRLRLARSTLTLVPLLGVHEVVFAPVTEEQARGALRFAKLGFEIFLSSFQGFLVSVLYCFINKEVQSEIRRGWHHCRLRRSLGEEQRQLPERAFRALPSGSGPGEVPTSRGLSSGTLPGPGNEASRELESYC

B1: AT182 [hGIP(5-30)NH2[F22K]-C16diacid/22] (peptide)
peptide: TFISDYSIAMDKIHQQDK(C16 diacid)VNWLLAQK-NH2
modifications: N-terminus assumed
SMILES: CC[C@H](C)[C@H](NC(=O)[C@H](CO)NC(=O)[C@H](Cc1ccc(O)cc1)NC(=O)[C@H](CC(=O)O)NC(=O)[C@H](CO)NC(=O)[C@@H](NC(=O)[C@H](Cc1ccccc1)NC(=O)[C@@H](N)[C@@H](C)O)[C@@H](C)CC)C(=O)N[C@@H](C)C(=O)N[C@@H](CCSC)C(=O)N[C@@H](CC(=O)O)C(=O)N[C@@H](CCCCN)C(=O)N[C@H](C(=O)N[C@@H](Cc1c[nH]cn1)C(=O)N[C@@H](CCC(N)=O)C(=O)N[C@@H](CCC(N)=O)C(=O)N[C@@H](CC(=O)O)C(=O)N[C@@H](CCCCNC(=O)CCCCCCCCCCCCCCC(=O)O)C(=O)N[C@H](C(=O)N[C@@H](CC(N)=O)C(=O)N[C@@H](Cc1c[nH]c2ccccc12)C(=O)N[C@@H](CC(C)C)C(=O)N[C@@H](CC(C)C)C(=O)N[C@@H](C)C(=O)N[C@@H](CCC(N)=O)C(=O)N[C@@H](CCCCN)C(N)=O)C(C)C)[C@@H](C)CC
B2: AT183 [hGIP(5-30)NH2[V23K]-C16diacid/23] (peptide)
peptide: TFISDYSIAMDKIHQQDFK(C16 diacid)NWLLAQK-NH2
modifications: N-terminus assumed
SMILES: CC[C@H](C)[C@H](NC(=O)[C@H](CO)NC(=O)[C@H](Cc1ccc(O)cc1)NC(=O)[C@H](CC(=O)O)NC(=O)[C@H](CO)NC(=O)[C@@H](NC(=O)[C@H](Cc1ccccc1)NC(=O)[C@@H](N)[C@@H](C)O)[C@@H](C)CC)C(=O)N[C@@H](C)C(=O)N[C@@H](CCSC)C(=O)N[C@@H](CC(=O)O)C(=O)N[C@@H](CCCCN)C(=O)N[C@H](C(=O)N[C@@H](Cc1c[nH]cn1)C(=O)N[C@@H](CCC(N)=O)C(=O)N[C@@H](CCC(N)=O)C(=O)N[C@@H](CC(=O)O)C(=O)N[C@@H](Cc1ccccc1)C(=O)N[C@@H](CCCCNC(=O)CCCCCCCCCCCCCCC(=O)O)C(=O)N[C@@H](CC(N)=O)C(=O)N[C@@H](Cc1c[nH]c2ccccc12)C(=O)N[C@@H](CC(C)C)C(=O)N[C@@H](CC(C)C)C(=O)N[C@@H](C)C(=O)N[C@@H](CCC(N)=O)C(=O)N[C@@H](CCCCN)C(N)=O)[C@@H](C)CC
B3: AT187 [hGIP(5-30)NH2[L27K]-C16diacid/27] (peptide)
peptide: TFISDYSIAMDKIHQQDFVNWLK(C16 diacid)AQK-NH2
modifications: N-terminus assumed
SMILES: CC[C@H](C)[C@H](NC(=O)[C@H](CO)NC(=O)[C@H](Cc1ccc(O)cc1)NC(=O)[C@H](CC(=O)O)NC(=O)[C@H](CO)NC(=O)[C@@H](NC(=O)[C@H](Cc1ccccc1)NC(=O)[C@@H](N)[C@@H](C)O)[C@@H](C)CC)C(=O)N[C@@H](C)C(=O)N[C@@H](CCSC)C(=O)N[C@@H](CC(=O)O)C(=O)N[C@@H](CCCCN)C(=O)N[C@H](C(=O)N[C@@H](Cc1c[nH]cn1)C(=O)N[C@@H](CCC(N)=O)C(=O)N[C@@H](CCC(N)=O)C(=O)N[C@@H](CC(=O)O)C(=O)N[C@@H](Cc1ccccc1)C(=O)N[C@H](C(=O)N[C@@H](CC(N)=O)C(=O)N[C@@H](Cc1c[nH]c2ccccc12)C(=O)N[C@@H](CC(C)C)C(=O)N[C@@H](CCCCNC(=O)CCCCCCCCCCCCCCC(=O)O)C(=O)N[C@@H](C)C(=O)N[C@@H](CCC(N)=O)C(=O)N[C@@H](CCCCN)C(N)=O)C(C)C)[C@@H](C)CC
B4: AT186 [hGIP(5-30)NH2[L26K]-C16diacid/26] (peptide)
peptide: TFISDYSIAMDKIHQQDFVNWK(C16 diacid)LAQK-NH2
modifications: N-terminus assumed
SMILES: CC[C@H](C)[C@H](NC(=O)[C@H](CO)NC(=O)[C@H](Cc1ccc(O)cc1)NC(=O)[C@H](CC(=O)O)NC(=O)[C@H](CO)NC(=O)[C@@H](NC(=O)[C@H](Cc1ccccc1)NC(=O)[C@@H](N)[C@@H](C)O)[C@@H](C)CC)C(=O)N[C@@H](C)C(=O)N[C@@H](CCSC)C(=O)N[C@@H](CC(=O)O)C(=O)N[C@@H](CCCCN)C(=O)N[C@H](C(=O)N[C@@H](Cc1c[nH]cn1)C(=O)N[C@@H](CCC(N)=O)C(=O)N[C@@H](CCC(N)=O)C(=O)N[C@@H](CC(=O)O)C(=O)N[C@@H](Cc1ccccc1)C(=O)N[C@H](C(=O)N[C@@H](CC(N)=O)C(=O)N[C@@H](Cc1c[nH]c2ccccc12)C(=O)N[C@@H](CCCCNC(=O)CCCCCCCCCCCCCCC(=O)O)C(=O)N[C@@H](CC(C)C)C(=O)N[C@@H](C)C(=O)N[C@@H](CCC(N)=O)C(=O)N[C@@H](CCCCN)C(N)=O)C(C)C)[C@@H](C)CC
B5: AT185 [hGIP(5-30)NH2[W25K]-C16diacid/25] (peptide)
peptide: TFISDYSIAMDKIHQQDFVNK(C16 diacid)LLAQK-NH2
modifications: N-terminus assumed
SMILES: CC[C@H](C)[C@H](NC(=O)[C@H](CO)NC(=O)[C@H](Cc1ccc(O)cc1)NC(=O)[C@H](CC(=O)O)NC(=O)[C@H](CO)NC(=O)[C@@H](NC(=O)[C@H](Cc1ccccc1)NC(=O)[C@@H](N)[C@@H](C)O)[C@@H](C)CC)C(=O)N[C@@H](C)C(=O)N[C@@H](CCSC)C(=O)N[C@@H](CC(=O)O)C(=O)N[C@@H](CCCCN)C(=O)N[C@H](C(=O)N[C@@H](Cc1c[nH]cn1)C(=O)N[C@@H](CCC(N)=O)C(=O)N[C@@H](CCC(N)=O)C(=O)N[C@@H](CC(=O)O)C(=O)N[C@@H](Cc1ccccc1)C(=O)N[C@H](C(=O)N[C@@H](CC(N)=O)C(=O)N[C@@H](CCCCNC(=O)CCCCCCCCCCCCCCC(=O)O)C(=O)N[C@@H](CC(C)C)C(=O)N[C@@H](CC(C)C)C(=O)N[C@@H](C)C(=O)N[C@@H](CCC(N)=O)C(=O)N[C@@H](CCCCN)C(N)=O)C(C)C)[C@@H](C)CC
B6: AT184 [hGIP(5-30)NH2[N24K]-C16diacid/24] (peptide)
peptide: TFISDYSIAMDKIHQQDFVK(C16 diacid)WLLAQK-NH2
modifications: N-terminus assumed
SMILES: CC[C@H](C)[C@H](NC(=O)[C@H](CO)NC(=O)[C@H](Cc1ccc(O)cc1)NC(=O)[C@H](CC(=O)O)NC(=O)[C@H](CO)NC(=O)[C@@H](NC(=O)[C@H](Cc1ccccc1)NC(=O)[C@@H](N)[C@@H](C)O)[C@@H](C)CC)C(=O)N[C@@H](C)C(=O)N[C@@H](CCSC)C(=O)N[C@@H](CC(=O)O)C(=O)N[C@@H](CCCCN)C(=O)N[C@H](C(=O)N[C@@H](Cc1c[nH]cn1)C(=O)N[C@@H](CCC(N)=O)C(=O)N[C@@H](CCC(N)=O)C(=O)N[C@@H](CC(=O)O)C(=O)N[C@@H](Cc1ccccc1)C(=O)N[C@H](C(=O)N[C@@H](CCCCNC(=O)CCCCCCCCCCCCCCC(=O)O)C(=O)N[C@@H](Cc1c[nH]c2ccccc12)C(=O)N[C@@H](CC(C)C)C(=O)N[C@@H](CC(C)C)C(=O)N[C@@H](C)C(=O)N[C@@H](CCC(N)=O)C(=O)N[C@@H](CCCCN)C(N)=O)C(C)C)[C@@H](C)CC

Key:
[1] = biological target: T1, human GIP receptor; assay: cell-based or functional assay
[2] = biological target: T1, human GIP receptor; assay: ratio of Ki with 2% HSA to Ki without HSA, 125I-hGIP competition binding on hGIPR COS-7 cells;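 note: nonspecific binding was defined as radioligand signal on cells lacking the receptor transfection, with cell lysates measured after washes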
Procedure: (§1) After incubation, the cells were washed twice in ice-cold binding buffer (+/−2% HSA) and lysed using 200 mM NaOH with 1% SDS for 30 min. Nonspecific binding was determined as the binding of radioactive ligand to untransfected cells.

[3] = biological target: T1, human GIP receptor; assay: 125I-hGIP(1-42) competition binding, COS-7 cells expressing human GIPR, without HSA;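 note: nonspecific binding defined as radioligand bound to cells lacking the transfected receptor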
Procedure: as §1

[4] = biological target: T1, human GIP receptor; assay: 125I-hGIP(1-42) competition binding, COS-7 cells expressing human GIPR, with 2% HSA;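 note: nonspecific signal taken as radioligand bound to untransfected cells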
Procedure: as §1

Row | Binder | cAMP accumulation Fold (fold change from GIP(5-30)NH2) [1] [fold] | cAMP accumulation IC50 [1] [µM] | cAMP accumulation logIC50 [1] | Fold (Ki + HSA / Ki - HSA) [2] [fold] | Ki [3] [µM] | Ki [4] [µM]
1 | B1 | 21.9 | 0.603 | -6.22 log(M) | 1.4 | 0.841 | 1.19
2 | B2 | 55 | 1.51 | -5.82 log(M) | 4.4 | 5.35 | 23.3
3 | B3 | 67.6 | 1.86 | -5.73 log(M) | 18.2 | 182 | 3300
4 | B4 | 2.6 | 0.0708 | -7.15 log(M) | 7.9 | 0.105 | 0.83
5 | B5 | 2.4 | 0.0661 | -7.18 log(M) | 5 | 0.0671 | 0.337
6 | B6 | 3.9 | 0.107 | -6.97 log(M) | 3.9 | 0.224 | 0.871
